Sequences and labels used below:
B1: Azoarcus group I ribozyme (parent)
chain: GUGCCUUGCGCCGGGAAACCACGCAAGGGAUGGUGUCAAAUUCGGCGAAACCUAAGCGCCCGCCCGGGCGUAUGGCAACGCCGAGCCAAGCUUCGGCGCCUGCGCCGAUGAAGGUGUAGAGACUAGACGGCACCCACCUAAGGCAAACGCUAUGGUGAAGGCAUAGUCCAGGGAGUGGCGAAAGUCACACAAACCGG

The data set covers variants of B1. The data set is described as follows: reverse-splicing fitness (ratio to wild type); higher = more active; in vitro selection; Mg2+ level not given. The method in brief:
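An in vitro group I ribozyme library with randomized positions was T7-transcribed and gel-purified. In triplicate, 10 pmol RNA in EPPS pH 7.5 was reacted with 50 pmoles of a 30-nt RNA substrate for 1 h at 37 °C across several added MgCl2 levels (1–48 mM), then stopped with EDTA. Products were reverse transcribed from a substrate-complementary primer, PCR-amplified and sequenced (HiSeq 4000). Fitness is a variant's read proportion after selection over that before, normalised to wild type.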
Regarding C82G A111U A120G A145U C150G C169U, the reverse-splicing fitness worked out at 0.00825.

On to C82G A111U A120G A145U C150G C169G, for which the reverse-splicing fitness came out at 0.00774.

As for C82G A111U A120G A145U C150G C169A, the reverse-splicing fitness is 0.00944.

Turning to C82G A111U A120G C150U C169A, the reverse-splicing fitness was 0.0112.

Regarding C82G A111U A120G C150U C169U, the reverse-splicing fitness was 0.0101.

Consider C82G A111U A120G C150U C169G, for which the reverse-splicing fitness amounted to 0.0112.

Regarding C82G A111U A120G A145G C169U U176C, the reverse-splicing fitness is 0.0161.

As to C82G A111U A120G A145G C169U U176G, the reverse-splicing fitness turned out to be 0.00501.

In the case of C82G A111U A120G A145G C169U U176A, the reverse-splicing fitness turned out to be 0.0198.

C82G A111U A120G C150A U176A: the reverse-splicing fitness came to 0.0143.

As for C82G A111U A120G C150A U176C, the reverse-splicing fitness turned out to be 0.0195.

Turning to C82G A111U A120G C150A U176G, the reverse-splicing fitness turned out to be 0.0103.

As for C82G A111U A120G A145G C150G C169G, the reverse-splicing fitness came to 0.00782.

Consider C82G A111U A120G A145G C150G C169A, for which the reverse-splicing fitness came out at 0.00911.

Consider C82G A111U A120G A145G C150G C169U, for which the reverse-splicing fitness came out at 0.00909.

In the case of C82G A111U A120G C169G U176A, the reverse-splicing fitness amounted to 0.0187.

Take C82G A111U A120G C169G U176C: the reverse-splicing fitness was 0.0225.

As to C82G A111U A120G C169G U176G, the reverse-splicing fitness worked out at 0.00448.

Consider C82G A111U A120G A145U C150U U176C, for which the reverse-splicing fitness is 0.0175.

Regarding C82G A111U A120G A145U C150U U176A, the reverse-splicing fitness is 0.0118.

C82G A111U A120G A145U C150U U176G: the reverse-splicing fitness turned out to be 0.00663.

As for C82G A111U A120G A145G C150U C169U U176G, the reverse-splicing fitness turned out to be 0.00561.

In the case of C82G A111U A120G A145G C150U C169U U176C, the reverse-splicing fitness stood at 0.0151.

With C82G A111U A120G A145G C150U C169U U176A, the reverse-splicing fitness is 0.0169.

As to C82G A111U A120G A145C C150U C169U U176G, the reverse-splicing fitness came out at 0.00513.

For the variant C82G A111U A120G A145C C150U C169U U176A, the reverse-splicing fitness worked out at 0.019.

As to C82G A111U A120G A145C C150U C169U U176C, the reverse-splicing fitness stood at 0.013.

Turning to C82G A111U A120U A145G C150G C169A U176C, the reverse-splicing fitness turned out to be 0.0086.

Turning to C82G A111U A120U A145G C150G C169A U176G, the reverse-splicing fitness turned out to be 0.00502.

In the case of C82G A111U A120U A145G C150G C169A U176A, the reverse-splicing fitness turned out to be 0.0114.

Consider C82G A111U A120G C169A U176C, for which the reverse-splicing fitness was 0.0215.

As to C82G A111U A120G C169A U176G, the reverse-splicing fitness is 0.00437.

Turning to C82G A111U A120G C169A U176A, the reverse-splicing fitness was 0.017.

For C82G A111U A120G A145U C150U C169G U176A, the reverse-splicing fitness amounted to 0.0145.

In the case of C82G A111U A120G A145U C150U C169G U176C, the reverse-splicing fitness was determined as 0.017.

With C82G A111U A120G A145U C150U C169G U176G, the reverse-splicing fitness was found to be 0.00511.

For the variant C82G A111U A120G A145U C169G U176C, the reverse-splicing fitness is 0.0162.

Take C82G A111U A120G A145U C169G U176G: the reverse-splicing fitness was 0.00405.

For C82G A111U A120G A145U C169G U176A, the reverse-splicing fitness is 0.0119.

As to C82G A111U A120G A145U C150G C169A U176A, the reverse-splicing fitness came to 0.0104.

With C82G A111U A120G A145U C150G C169A U176C, the reverse-splicing fitness was found to be 0.0114.

For C82G A111U A120G A145U C150G C169A U176G, the reverse-splicing fitness amounted to 0.00513.

With C82G A111U A120G A145C C150G C169A U176C, the reverse-splicing fitness stood at 0.0077.

With C82G A111U A120G A145C C150G C169A U176A, the reverse-splicing fitness is 0.00745.

As for C82G A111U A120G A145C C150G C169A U176G, the reverse-splicing fitness was 0.00582.

For C82G A111U A120G C150U U176C, the reverse-splicing fitness came to 0.0178.

Consider C82G A111U A120G C150U U176A, for which the reverse-splicing fitness turned out to be 0.0111.

On to C82G A111U A120G C150U U176G, for which the reverse-splicing fitness was found to be 0.011.

With C82G A111U A120G C150G U176A, the reverse-splicing fitness came out at 0.00658.

Turning to C82G A111U A120G C150G U176C, the reverse-splicing fitness came out at 0.0117.

Take C82G A111U A120G C150G U176G: the reverse-splicing fitness worked out at 0.00354.

In the case of C82G A111U A120G A145G U176C, the reverse-splicing fitness is 0.0176.

C82G A111U A120G A145G U176A: the reverse-splicing fitness was 0.0125.

For C82G A111U A120G A145G U176G, the reverse-splicing fitness worked out at 0.0077.

As for C82G A111U A120G A145U C150A C169U U176C, the reverse-splicing fitness is 0.0142.

As to C82G A111U A120G A145U C150A C169U U176A, the reverse-splicing fitness amounted to 0.0183.

C82G A111U A120G A145U C150A C169U U176G: the reverse-splicing fitness stood at 0.00528.

For C82G A111U A120U A145G C150A U176A, the reverse-splicing fitness came out at 0.00769.

As to C82G A111U A120U A145G C150A U176C, the reverse-splicing fitness turned out to be 0.00757.

As for C82G A111U A120U A145G C150A U176G, the reverse-splicing fitness stood at 0.00383.

For the variant C82G A111U A120U A145C, the reverse-splicing fitness amounted to 0.0386.

With C82G A111U A120U A145G, the reverse-splicing fitness was 0.043.

In the case of C82G A111U A120U, the reverse-splicing fitness was determined as 0.0462.

As for C82G A111U A120G A145G C169U, the reverse-splicing fitness was 0.00985.

On to C82G A111U A120G A145G C169G, for which the reverse-splicing fitness was determined as 0.0141.

Regarding C82G A111U A120G A145G C169A, the reverse-splicing fitness stood at 0.0111.

As to C82G A111U A120G A145G C150G U176A, the reverse-splicing fitness was determined as 0.00727.

Regarding C82G A111U A120G A145G C150G U176G, the reverse-splicing fitness came out at 0.00601.

For the variant C82G A111U A120G A145G C150G U176C, the reverse-splicing fitness stood at 0.0109.

With C82G A111U A120U A145G C150A C169A, the reverse-splicing fitness was 0.00617.

Consider C82G A111U A120U A145G C150A C169G, for which the reverse-splicing fitness was 0.00555.

Take C82G A111U A120U A145G C150A C169U: the reverse-splicing fitness was found to be 0.00464.

Turning to C82G A111U A120G C150A C169U, the reverse-splicing fitness turned out to be 0.00827.

Consider C82G A111U A120G C150A C169A, for which the reverse-splicing fitness stood at 0.0117.

For C82G A111U A120G C150A C169G, the reverse-splicing fitness worked out at 0.0106.

With C82G A111U A120G A145G, the reverse-splicing fitness worked out at 0.0151.

For C82G A111U A120G A145U, the reverse-splicing fitness was found to be 0.0161.

With C82G A111U A120G A145C C150G C169U, the reverse-splicing fitness is 0.0084.

For the variant C82G A111U A120G A145C C150G C169A, the reverse-splicing fitness is 0.00877.

With C82G A111U A120G A145C C150G C169G, the reverse-splicing fitness stood at 0.00796.

Turning to C82G A111U A120G A145C C169U U176G, the reverse-splicing fitness amounted to 0.00479.

Consider C82G A111U A120G A145C C169U U176A, for which the reverse-splicing fitness turned out to be 0.0203.

For the variant C82G A111U A120G A145C C169U U176C, the reverse-splicing fitness turned out to be 0.0168.

The values are drawn from the RNAGym collection of RNA variant scans (doi:10.1093/molbev/msab373).
